The record followed here is patent publication US20250368745A1 (published 2025).

First the molecules themselves.
T1: human IL-18BP (human, UniProt O95998 31-194)
T1 construct: UniProt printed as 095998; also called hIL-18BP
T1 sequence: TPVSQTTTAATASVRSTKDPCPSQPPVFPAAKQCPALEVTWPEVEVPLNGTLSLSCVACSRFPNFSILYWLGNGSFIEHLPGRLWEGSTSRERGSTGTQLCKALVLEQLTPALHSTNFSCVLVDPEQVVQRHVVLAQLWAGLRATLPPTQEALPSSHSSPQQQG

B1: SA301a HC-G55A (antibody, name in Kabat numbering, V domains shown)
VH: QVQLQESGPGLVKPSQTLSLTCTVSGYSITSDYNSHWIRQPPGKGLEWIGYIHYSASTNYNPSLKSRVTISRDTSKNQFSLKLSSVTAADTAVYYCARNYGSIYVNYFDYWGQGTLVTVSS
VL: EIVLTQSPATLSLSPGERATLSCSASSSVSYMYWYQQKPGQAPRPLIYRTSNLASGIPARFSGSGSGTDFTLTISSLEPEDFAVYYCQQYHSYPTFGGGTKVEIK
notes: IgG1 kappa
B2: SA301a HC-G55E (antibody, name in Kabat numbering, V domains shown)
VH: B1 VH with A56E
VL: B1 VL
notes: IgG1 kappa
B3: SA301a HC-G55D (antibody, name in Kabat numbering, V domains shown)
VH: B1 VH with A56D
VL: B1 VL
notes: IgG1 kappa
B4: SA301a LC-Y94V (antibody, V domains shown)
VH: B1 VH with A56G
VL: B1 VL with Y93V
B5: SA301a LC-T96E (antibody, V domains shown)
VH: B1 VH with A56G
VL: B1 VL with T95E
B6: SA301a LC-T96V (antibody, V domains shown)
VH: B1 VH with A56G
VL: B1 VL with T95V
B7: SA301a LC-P95L (antibody, V domains shown)
VH: B1 VH with A56G
VL: B1 VL with P94L
B8: SA301a LC-P95K (antibody, V domains shown)
VH: B1 VH with A56G
VL: B1 VL with P94K
B9: SA301a LC-Y94A (antibody, V domains shown)
VH: B1 VH with A56G
VL: B1 VL with Y93A
B10: SA301a LC-Y94S (antibody, V domains shown)
VH: B1 VH with A56G
VL: B1 VL with Y93S
B11: SA301a LC-S93D (antibody, V domains shown)
VH: B1 VH with A56G
VL: B1 VL with S92D
B12: SA301a LC-S93I (antibody, V domains shown)
VH: B1 VH with A56G
VL: B1 VL with S92I
B13: SA301a LC-S93Q (antibody, V domains shown)
VH: B1 VH with A56G
VL: B1 VL with S92Q
B14: SA301a LC-P95N (antibody, V domains shown)
VH: B1 VH with A56G
VL: B1 VL with P94N
B15: SA301a LC-T96Y (antibody, V domains shown)
VH: B1 VH with A56G
VL: B1 VL with T95Y
B16: SA301a LC-S93Y (antibody, V domains shown)
VH: B1 VH with A56G
VL: B1 VL with S92Y
B17: SA301a LC-P95F (antibody, V domains shown)
VH: B1 VH with A56G
VL: B1 VL with P94F
B18: SA301a LC-T96D (antibody, V domains shown)
VH: B1 VH with A56G
VL: B1 VL with T95D
B19: SA301a LC-H92E (antibody, V domains shown)
VH: B1 VH with A56G
VL: B1 VL with H91E
B20: SA301a LC-T96I (antibody, V domains shown)
VH: B1 VH with A56G
VL: B1 VL with T95I
B21: SA301a LC-Y94F (antibody, V domains shown)
VH: B1 VH with A56G
VL: B1 VL with Y93F
B22: SA301a LC-S93L (antibody, V domains shown)
VH: B1 VH with A56G
VL: B1 VL with S92L
B23: SA301a LC-T96K (antibody, V domains shown)
VH: B1 VH with A56G
VL: B1 VL with T95K
B24: SA301a LC-Y94G (antibody, V domains shown)
VH: B1 VH with A56G
VL: B1 VL with Y93G
B25: SA301a LC-T96P (antibody, V domains shown)
VH: B1 VH with A56G
VL: B1 VL with T95P
B26: SA301a LC-Y94N (antibody, V domains shown)
VH: B1 VH with A56G
VL: B1 VL with Y93N
B27: SA301a LC-H92A (antibody, V domains shown)
VH: B1 VH with A56G
VL: B1 VL with H91A
B28: SA301a LC-Y94L (antibody, V domains shown)
VH: B1 VH with A56G
VL: B1 VL with Y93L
B29: SA301a LC-T96M (antibody, V domains shown)
VH: B1 VH with A56G
VL: B1 VL with T95M
B30: SA301a LC-S93M (antibody, V domains shown)
VH: B1 VH with A56G
VL: B1 VL with S92M
B31: SA301a LC-P95E (antibody, V domains shown)
VH: B1 VH with A56G
VL: B1 VL with P94E
B32: SA301a LC-S93A (antibody, V domains shown)
VH: B1 VH with A56G
VL: B1 VL with S92A
B33: SA301a LC-P95Y (antibody, V domains shown)
VH: B1 VH with A56G
VL: B1 VL with P94Y
B34: SA301a LC-S93V (antibody, V domains shown)
VH: B1 VH with A56G
VL: B1 VL with S92V
B35: SA301a LC-S93G (antibody, V domains shown)
VH: B1 VH with A56G
VL: B1 VL with S92G
B36: SA301a LC-T96A (antibody, V domains shown)
VH: B1 VH with A56G
VL: B1 VL with T95A
B37: SA301a LC-S93P (antibody, V domains shown)
VH: B1 VH with A56G
VL: B1 VL with S92P
B38: SA301a LC-S93F (antibody, V domains shown)
VH: B1 VH with A56G
VL: B1 VL with S92F
B39: SA301a LC-P95A (antibody, V domains shown)
VH: B1 VH with A56G
VL: B1 VL with P94A
B40: SA301a LC-H92T (antibody, V domains shown)
VH: B1 VH with A56G
VL: B1 VL with H91T
B41: SA301a LC-Y94I (antibody, V domains shown)
VH: B1 VH with A56G
VL: B1 VL with Y93I
B42: SA301a LC-Y94R (antibody, V domains shown)
VH: B1 VH with A56G
VL: B1 VL with Y93R
B43: SA301a LC-S93K (antibody, V domains shown)
VH: B1 VH with A56G
VL: B1 VL with S92K
B44: SA301a LC-Y94M (antibody, V domains shown)
VH: B1 VH with A56G
VL: B1 VL with Y93M

Changes are numbered by the printed parent chain. In names and notes the source's numbering stands.

The first test concerns the target T1, human IL-18BP. In words: BLI, apparent KD.
For the molecule B1, the Kd was determined as 0.75 nM.

B2: the Kd stood at 0.4 nM.

B3: the Kd was 1.37 nM.

The target of the next test is T1, human IL-18BP. In words: BLI, apparent KD. This is another data set of the same source.
With B4, the Kd amounted to 2.35 nM.

Consider B5, for which the Kd came out at 0.31 nM.

Regarding B6, the Kd was found to be 0.21 nM.

Consider B7, for which the Kd is 2.18 nM.

For the molecule B8, the Kd turned out to be 0.22 nM.

With B9, the Kd came to 1.15 nM.

For the molecule B10, the Kd was 0.63 nM.

In the case of B11, the Kd came to 0.23 nM.

Consider B12, for which the Kd came to 0.21 nM.

With B13, the Kd was found to be 0.24 nM.

As to B14, the Kd was found to be 0.32 nM.

Regarding B15, the Kd worked out at 0.22 nM.

Regarding B16, the Kd was 0.19 nM.

Turning to B17, the Kd came out at 2.01 nM.

In the case of B18, the Kd was 0.13 nM.

Consider B19, for which the Kd worked out at 0.36 nM.

For B20, the Kd is 0.12 nM.

With B21, the Kd stood at 0.13 nM.

As for B22, the Kd was determined as 0.23 nM.

B23: the Kd worked out at 0.05 nM.

For the molecule B24, the Kd amounted to 0.12 nM.

Take B25: the Kd amounted to 0.26 nM.

For the molecule B26, the Kd is 0.22 nM.

As for B27, the Kd came to 0.95 nM.

Regarding B28, the Kd was 0.16 nM.

With B29, the Kd was 0.19 nM.

In the case of B30, the Kd was 0.14 nM.

Turning to B31, the Kd is 0.44 nM.

For the molecule B32, the Kd stood at 0.52 nM.

Consider B33, for which the Kd is 0.82 nM.

On to B34, for which the Kd turned out to be 0.19 nM.

B35: the Kd turned out to be 0.08 nM.

In the case of B36, the Kd is 0.17 nM.

On to B37, for which the Kd is 0.41 nM.

Consider B38, for which the Kd is 0.15 nM.

In the case of B39, the Kd came out at 0.26 nM.

In the case of B40, the Kd came to 0.15 nM.

With B41, the Kd worked out at 1.27 nM.

For B42, the Kd was found to be 0.29 nM.

B43: the Kd was 0.16 nM.

As for B44, the Kd is 1.93 nM.
